Here are results for one molecule from patent publication US20240254166A1 (University of California, published 2024).

The target of the assay is T1, T-Alb-VFP (human, UniProt P02768 25-609).
T1 construct: mature;domain: transmembrane domain; also called tethered Alb
Kind of assay: FRET (donor photobleaching), HEK293T cells.

B1: CiHv1-TFP (other)
chain: MEGDNCNKSRHKSHNMINPNYASVRCTQPLPSVIQLRSRNKMIGITEDPSSDSEPVSSNQPLLLTNLSYEVHTFNDNNNHERPAPQEQSTQNTMISMQSEQKSDRFTASNLGMFQYMKFEIGEDGDDHEEEAILTNREKLRHILHSKPIHVAIIVLVVLDSFLVVGELLIDLKVIIVPHGNPAPEILHGFSLSILSIFMVEIALKIIADHRHFIHHKVEVLDAVVVVISFGVDIALIFVGESEALAAIGLLVILRLWRVFRIINGIIVTVKTKADDRVHEIKKKNSELELQIHNLEEKLSQKEQDMSRLHEILRCNNIDIPPTVPLTTSVQIHSTTTASADV
notes: whole, on cells
Take B1: the binding result was “no binding”.
